{"source": "patent US20200369775A1", "about": "(Dana-Farber, published 2020)", "binders": {"B1": {"name": "mAb2-3 (isotype not stated for the experiment) (antibody, V domains shown)", "VH": "QVQLVQSGAEVKKPGASVKVSCKASGYTFASAWMHWMRQAPGQGLEWIGWINPGNVNTKYNEKFKGRATLTVDTSTNTAYMELSSLRSEDTAVYYCARSTYYRPLDYWGQGTLVTVSS", "VL": "not shown"}}, "key": {"[1]": {"target": "T1, IL-2 receptor β subunit chain (UniProt P14784 27-551)", "T1 construct": "whole, on cells; also called β chain; IL-2R β", "T1 sequence (looked up)": "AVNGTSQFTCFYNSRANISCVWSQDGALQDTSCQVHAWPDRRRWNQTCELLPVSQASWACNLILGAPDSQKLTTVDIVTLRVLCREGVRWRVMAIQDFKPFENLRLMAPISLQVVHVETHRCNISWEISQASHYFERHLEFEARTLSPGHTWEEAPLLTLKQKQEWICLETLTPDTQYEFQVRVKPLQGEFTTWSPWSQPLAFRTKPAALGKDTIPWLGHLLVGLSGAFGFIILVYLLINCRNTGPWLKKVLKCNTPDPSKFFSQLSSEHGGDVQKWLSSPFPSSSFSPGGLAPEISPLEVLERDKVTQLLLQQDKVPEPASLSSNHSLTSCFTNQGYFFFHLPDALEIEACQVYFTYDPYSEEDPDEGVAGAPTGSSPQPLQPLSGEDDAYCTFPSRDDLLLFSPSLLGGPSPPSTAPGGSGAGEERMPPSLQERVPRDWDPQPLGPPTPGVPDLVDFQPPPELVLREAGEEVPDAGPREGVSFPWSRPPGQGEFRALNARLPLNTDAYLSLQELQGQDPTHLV", "assay": "transiently transfected 293T cells, control experiment"}, "[2]": {"target": "T2, IL-2 receptor (IL-2R) complex of α, β and γ chains (UniProt P01589 22-272; P14784 27-551; P31785 23-369)", "T2 construct": "whole, on cells; co-expressed on transiently transfected 293T cells in the control experiment; also called IL-2Rs; the complex", "T2 sequence (looked up) 1": "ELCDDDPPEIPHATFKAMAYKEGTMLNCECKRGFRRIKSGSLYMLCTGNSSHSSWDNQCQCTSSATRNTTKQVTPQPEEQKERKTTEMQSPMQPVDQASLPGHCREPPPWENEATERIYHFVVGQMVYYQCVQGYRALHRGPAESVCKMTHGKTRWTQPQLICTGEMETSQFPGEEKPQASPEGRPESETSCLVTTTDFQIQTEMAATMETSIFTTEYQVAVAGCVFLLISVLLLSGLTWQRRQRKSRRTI", "T2 sequence (looked up) 2": "T1 sequence (looked up)", "T2 sequence (looked up) 3": "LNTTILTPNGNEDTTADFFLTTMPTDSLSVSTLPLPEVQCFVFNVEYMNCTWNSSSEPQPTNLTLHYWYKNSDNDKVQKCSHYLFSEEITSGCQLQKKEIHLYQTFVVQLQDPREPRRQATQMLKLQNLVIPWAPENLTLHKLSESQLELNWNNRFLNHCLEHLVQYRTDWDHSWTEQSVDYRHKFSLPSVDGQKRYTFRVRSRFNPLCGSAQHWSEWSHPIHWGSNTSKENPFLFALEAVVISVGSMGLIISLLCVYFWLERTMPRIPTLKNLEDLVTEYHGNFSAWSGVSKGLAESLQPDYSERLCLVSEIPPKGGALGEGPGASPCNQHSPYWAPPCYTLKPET", "assay": "transiently transfected 293T cells, control experiment"}, "[3]": {"target": "T3, IL-2 receptor γ subunit chain (UniProt P31785 23-369)", "T3 construct": "whole, on cells; also called γ chain; IL-2R γ", "T3 sequence (looked up)": "T2 sequence (looked up) 3", "assay": "transiently transfected 293T cells, control experiment"}, "[4]": {"target": "T4, CD25 (TAC), the α chain of IL-2 receptor (UniProt P01589 22-272, limits assumed)", "T4 construct": "whole, on cells; also called IL-2Rα; α subunit chain", "T4 sequence (looked up)": "T2 sequence (looked up) 1", "assay": "transiently transfected 293T cells, control experiment"}, "[5]": {"target": "T5, CC chemokine receptor 4 (CCR4) (human, UniProt P51679 1-360)", "T5 construct": "whole, on cells; Endogenous CCR4 on human T cell subsets and Mac-1 cells", "T5 sequence (looked up)": "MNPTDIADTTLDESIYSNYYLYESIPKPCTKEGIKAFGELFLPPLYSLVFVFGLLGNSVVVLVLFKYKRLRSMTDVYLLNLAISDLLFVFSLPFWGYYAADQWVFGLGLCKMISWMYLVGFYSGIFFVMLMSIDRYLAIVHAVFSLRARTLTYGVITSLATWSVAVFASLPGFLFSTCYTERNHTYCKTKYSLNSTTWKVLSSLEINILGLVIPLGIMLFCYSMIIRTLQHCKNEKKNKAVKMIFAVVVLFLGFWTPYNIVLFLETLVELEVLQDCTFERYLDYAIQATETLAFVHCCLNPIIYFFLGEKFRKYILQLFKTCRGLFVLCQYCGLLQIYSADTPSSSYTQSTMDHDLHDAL", "assay": "depletion of CCR4+ tumor-primed T cells with antibody-conjugated beads, checked by flow cytometry", "method": "FIG. 4. The activity of tumor-primed T cells on IGROV-1 cells. (A) Tumor-primed T cells were stained by anti-CD3, CD4, CD8, CD25 and (B) CCR4 antibodies. CCR4-depleted tumor-primed T cells by mAb2-3-conjugated beads and T cell subsets in tumor-primed T cells were analyzed by flow cytometry. (C) Tumor-primed T cells and mAb2-3-depleted tumor-primed T cells were incubated with IGROV-1 cells for 24 and 48 hours and then the supernatant were harvested and detected the expression level of IFN-γ. […] (D) Intracellular IFN-γ staining of CD4 and CD8 T cells from coculture. Cells were harvested at 48 hours post-coculture; incubated for 6 h in the presence of brefeldin A; stained for CD3, CD4, and CD8; fixed in paraformaldehyde; permeabilized; and stained for intracellular IFN-γ. The cells were gated on lymphocytes by size and CD markers and analyzed by flow cytometry. (E) The cytotoxic activities of tumor-primed T cells and mAb2-3-depleted tumor primed T cells were further detected by LDH ELISA assay. All experiments represented triplicates in each time point with the means±S.D. and performed in two independent experiments. *, **, and *** represents student's t-test p value<0.05, 0.01, and 0.005, respectively.\nTo establish an OvCA xenograft bearing humanized mouse model, IGROV-1-specific T cells in vitro were created that could be tested subsequently for in vivo immunotherapy. […]"}}, "data": [{"binder": "B1", "values": [{"measurement": "binding result", "setting": "[1]", "result": "no binding"}, {"measurement": "binding result", "setting": "[2]", "result": "no binding"}, {"measurement": "binding result", "setting": "[3]", "result": "no binding"}, {"measurement": "binding result", "setting": "[4]", "result": "no binding"}, {"measurement": "binding result", "setting": "[5]", "result": "binds"}]}]}
